How the values were obtained:
wild-type HCMV protease = assay: Stability of purified wild-type enzyme at pH 5.5 and return of activity at pH 7.5; assay type: physicochemical, human cytomegalovirus
Procedure: The wild-type HCMV protease was purified similarly. To avoid self-proteolysis, the protein obtained from the first anion exchange step was folded and dialyzed as above, but in the absence of glycerol. The sample was then acidified to pH 5.5 with MES, applied to a cation exchange column in 50 mM MES, 1 mM EDTA, 1 mM DTT, pH 5.5, and eluted with a sodium chloride gradient. […] Enzyme preparations were greater than 95% pure by SDS PAGE and gave the expected amino acid analysis. The N-terminal 5 residues of both enzymes were MTMDE, showing retention but defonnylation of the initial N-formyl methionine. Electrospray mass spectrometry indicated a single species within 10 a.m.u. of the expected mass. The concentrations of stock enzyme solutions were determined by quantitative amino acid analysis.

HCMV protease [1] = assay: Activity assay of eluted size exclusion peaks at 0° C.; assay type: biochemical, human cytomegalovirus
Procedure: Assignment of the early (55 kDa) and late (33 kDa) elution peaks in FIG. 1 as dimer and monomer, respectively, allows the estimation of a Kd for dimerization. […] The maximum fraction of dimeric protease extrapolated from FIG. 2 is 0.92. In separate experiments using protease at a loading concentration of 100 mM, the maximum fraction of dimeric protease is more than or equal to 0.95. […] The same analysis applied to enzyme pre-equilibrated in 10% glycerol produces a […]

HCMV protease [2] = assay: Analytical centrifugation, velocity sedimentation of HCMV protease; assay type: physicochemical, human cytomegalovirus; settings: 20 mM (monomer equivalents), 20° C.
Source text: Analytical Centrifugation
The quaternary state of the HCMV protease was characterized by sedimentation velocity measurements. […] An approximate solution of the Lamm equation fits directly to the data to obtain the sedimentation coefficient, S20,w, the diffusion coefficient, D20,w, and by use of the Svedberg relation, the molecular weight. For both samples good fits are found for a single sedimenting species. In the absence of glycerol the molecular weight obtained is 29.7 kDa which is close to the molecular weight of a monomeric HCMV protease. […] The increase in S20,w and the decrease D20,w shown in Table 1 are both consistent with the existence of a stable dimeric protease in 20% glycerol.
^α Samples were loaded at 20 mM (monomer equivalents) and
sedimentation was conducted at 20° C. Data shown in brackets are
the 95% confidence limits.

HCMV protease [3] = assay: Dependence of protease specific activity on temperature, enzyme and glycerol concentrations (dilution); assay type: biochemical, human cytomegalovirus
Procedure: Dependence of Protease Specific Activity on Enzyme and Glycerol Concentrations
Dilution of a concentrated solution of HCMV protease produces a time-dependent change in activity to a new, lower level. The rate and extent of the change in protease activity is a function of temperature. […] At temperatures above 20° C., the change in activity (t1/2 ≤30 min) upon enzyme dilution is such that an accurate assessment of activity requires a rapid assay (ca. 1 min).
The specific activity of the HCMV protease increases at higher enzyme and glycerol concentrations. […] It can be shifted back to the higher activity seen for 20% glycerol by addition of an equal volume of buffer containing 30% glycerol to produce a solution containing 20% glycerol, followed by further incubation. Thus, the dependence of HCMV protease activity on enzyme and glycerol concentrations is reversible.
The dependence of HCMV protease activity on enzyme concentration can be interpreted in terms of a monomer-dimer equilibrium wherein only the dimeric form of the enzyme is active.

HCMV protease [4] = assay: Kinetic assays of monomeric form; assay type: biochemical, human cytomegalovirus; settings: ambient or higher temperatures
Procedure: For this reason, the activity of this protease has been erroneously believed to be very low. […] This physiochemical phenomenon is governed by thermodynamic principles. Due to the high activation energy required for dissociation, the HCMV protease can be "frozen" in its active, dimeric form at about 0° C., thus enabling sensitive detection of inhibitors of this enzyme. […] The existence of the HCMV protease has been reported, e.g., see Pinko, et al., J. Biol. Chem. 270, 23634 (1995). Assays for the catalytic activity of this enzyme have been described, albeit the reported kinetic parameters were substantially lower than those measured by applicants. […] This approach affords an assay for the activity of the protease at low concentration (≤20 nM), thus permitting detection of weak inhibitors or strong inhibitors at low concentration.

wild-type HCMV protease: recombinant wild-type HCMV protease
return of activity following dilution (wild-type HCMV protease; dilution from pH 5.5 to pH 7.5): returned to full activity
stability of wild-type enzyme (wild-type HCMV protease; pH 5.5): stable at pH 5.5

dimer: early (55 kDa) elution peak of HCMV protease, dimeric form
hydrolytic activity in eluted dimer peak (HCMV protease [1]): more than 50 -fold of detectable levels

HCMV protease: N-terminal 256 amino acid protease domain of HCMV strain AD169, recombinantly expressed in E. coli
diffusion coefficient D20,w (HCMV protease [2]; 0% glycerol): 8.34 cm^2 10^7
sedimentation coefficient S20,w (HCMV protease [2]; 0% glycerol): 2.78 S
diffusion coefficient D20,w (HCMV protease [2]; 20% glycerol (v/v)): 6.57 cm^2 10^7
sedimentation coefficient S20,w (HCMV protease [2]; 20% glycerol (v/v)): 3.59 S
change in protease activity upon dilution (HCMV protease [3]; 0° C.): no significant change is observable for a period of hours
time for active form of the enzyme to reach equilibrium after dilution (HCMV protease [3]; 10% and 20% glycerol samples): ≤ 1.5 h
activity in 10% glycerol compared with 20% glycerol (HCMV protease [3]; 10% vs 20% glycerol (v/v)): lower than that incubated in 20% glycerol
decrease in protease activity upon dilution (HCMV protease [3]; 37° C.): occurs within minutes
specific activity as enzyme concentration is lowered (HCMV protease [3]; after dilution, incubations of 1.5 hr and 3.5 hr): tends toward zero as its concentration is lowered
t1/2 of change in activity upon enzyme dilution (HCMV protease [3]; temperatures above 20° C.): ≤ 30 min

monomer: late (33 kDa) elution peak of HCMV protease, monomeric form
activity of monomeric form as gauged by kinetic assays (HCMV protease [4]): inactive
activity in eluted monomer peak (HCMV protease [1]): no detectable activity
